For assay [1], the target named is GmCHS7:PDZlig-CeGFP (Glycine max) (UniProt P30081).
For assay [2] the target is unchanged. The source holds these as a separate data set.

Sequence of UniProt P30081 (P30081 whole entry): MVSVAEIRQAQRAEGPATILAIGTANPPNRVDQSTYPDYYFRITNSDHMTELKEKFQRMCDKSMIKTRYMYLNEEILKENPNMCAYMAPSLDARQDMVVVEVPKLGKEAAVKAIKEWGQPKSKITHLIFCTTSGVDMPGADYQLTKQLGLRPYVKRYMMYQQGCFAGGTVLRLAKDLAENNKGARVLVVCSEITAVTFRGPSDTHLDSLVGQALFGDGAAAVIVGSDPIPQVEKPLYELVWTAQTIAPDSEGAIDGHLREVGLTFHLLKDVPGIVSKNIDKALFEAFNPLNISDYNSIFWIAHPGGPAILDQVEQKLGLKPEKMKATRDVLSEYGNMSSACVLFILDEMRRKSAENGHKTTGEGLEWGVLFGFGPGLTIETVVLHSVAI

Take “GuCHR:PDZ-NeGFP (from UniProt Q61234 81-164)”: the titer of apigenin in strain DHF-2 (pYH153) compared to DHF-1 (pYH141) in assay [1] came to 1.1 fold. Further, the CHR ratio (CHR product to total CHS product) in E. coli BL21(DE3)-pYH153 in assay [2] is 54.7%.

The values above are taken from article PMC8488244.
